According to paper PMC10163220:

Columns and labels:
[1] = target: ZIKV NS4A N-terminal peptide construct (residues 4–58) with N-terminal His-tag and linker (Zika virus (strain MR-766)); experiment: AUC; sedimentation equilibrium; approx. 10, 20 and 40 µM in 50 mM Tris–HCl pH 7.3, 150 mM NaCl; 23,000, 28,000, 34,500 and 42,000 rpm; 280 nm; self-equilibrium models in SEDPHAT, monomer to dimer to trimer
[2] = target: ZIKV NS4A N-terminal peptide construct (residues 4–58) with N-terminal His-tag and linker (Zika virus (strain MR-766)); experiment: AUC; sedimentation velocity; 50 mM Tris–HCl (pH 7.4), approx. 3–300 µM, 50,000 rpm, 20 °C, absorbance at 230 or 280 nm; c(s), c(s,ff0) and hybrid local continuous global discrete (non-interacting) analysis; no detergent or lipids

ZIKV NS4A N-terminal peptide construct (residues 4–58) with N-terminal His-tag and linker
percent of monomers in trimers at 50 µM [1]: 50%
stoichiometry N [1]: 3
stoichiometry N [2]: 3
